One test has as its system cumulus-oocyte complexes. The experiment in a line: Study II: oocyte developmental competence after IVM, IVF and embryo culture (cleavage, blastocyst). The class given is cell-based, Bovine. On the procedure:
Bovine ovaries were collected from local abattoirs and transported to the laboratory in warm saline (30-35° C.). Cumulus-oocyte complexes (COC) were aspirated from antral follicles (2 to 8 mm diameter) using an 18-gauge needle and a 10-ml syringe containing ˜2 ml aspiration media (Hepes-buffered Tissue Cultured Medium-199; TCM-199, ICN Biochemicals, Irvine, Calif., USA) supplemented with 50 μg/ml kanamycin, 0.5 mM sodium pyruvate, 50 μg/ml heparin and 4 mg/ml fatty acid-free bovine serum albumin (FAF-BSA; ICPbio Ltd, Aukland, NZ). Intact COC with compact cumulus vestments greater than five cell layers and evenly pigmented cytoplasm were selected under a dissecting microscope and washed twice in Hepes-buffered TCM-199 and once in Hepes-TCM199 supplemented with 10% fetal calf serum (FCS) (Invitrogen, Carlsbad, Calif.). Base media for oocyte maturation was Bovine VitroMat (Cook Australia, Eight Mile Plain, Qld, Australia), and is a medium based on the ionic composition of bovine follicular fluid and also containing 100 μm glycylglutamine (Glutamax; Gibco Invitrogen, Carlsbad, Calif., USA), 100 μm N-acetyl-1-cysteine, 100 μm 2-mercaptoethylamine, 1% v/v non-essential amino acids (100×; Gibco Invitrogen), 2% v/v essential amino acids (50×; Gibco Invitrogen), 4 mg mL-1 fatty acid-free BSA and 5.6 mm glucose. […] (Puregon, Organon, Oss, Netherlands). Complexes were cultured pre-equilibrated […] drops overlaid with mineral oil and incubated at 39° C. with 5% CO2 in humidified air for 24 hour. […]
Recombinant mouse GDF-9 and recombinant ovine BMP-15 were produced in-house as previously described (Kaivo-Oja et al. (2003) J. Clin. Endocrinol Metab 88:755-762; McNatty et al. (2005) Reproduction 129:473-480) using transfected 293 human embryonic kidney cell lines (293H). Recombinant proteins were partially purified using hydrophobic interaction chromatography (HIC), as recently described (Hickey et al., (2005) Biol Reprod on line), and their concentrations were then estimated by Western blot (Kaivo-Oja et al., 2003 3) J. Clin. Endocrinol Metab 88:755-762). Control conditioned medium (293H) was also produced from untransfected 293H cells and purified by HIC.
All experiments were carried out using frozen semen from the same bull of proven fertility. Briefly, one straw of semen stored in liquid nitrogen was rapidly thawed in a water bath for one minute. The semen sample was layered on top of a discontinuous (45%:90%) Percoll gradient (Amersham Bioscience) and centrifuged at room temperature for 20-25 mins at 700 g. The supernatant was removed and the sperm pellet was washed with […] Bovine Vitro Wash (Cook Australia, Eight Mile Plains, Qld, Australia) and centrifuged for a further 5 minutes at 200 g. spermatozoa were resuspended with TVF medium (Bovine Vitro Fert, Cook Australia), then added to the fertilization media drops (Bovine Vitro Fert, Cook Australia, supplemented with 0.01 mM heparin, 0.2 mM penicillamine and […] hypotaurine) at a final concentration of 1×10^6 spermatozoa/ml. COCs were inseminated at a media density of […] of IVF medium per COCs for 24 h, at 39° C. in 6% CO2 in humidified air.
Cumulus cells were removed by gentle pipetting 23-24 h post insemination and five presumptive zygotes were transferred into 20 μl drops of pre-equilibrated Cook Bovine Cleave medium (modified SOFaa, Cook Australia) and cultured under mineral oil at 38.5° C. in 7% O2, 6% CO2, balance N2, for five days (day 1 to day 5).
On Day 5, embryos were transferred in groups of […] drops of pre-equilibrated Bovine Vitro Blast (Cook Bovine Blast medium; Cook Australia) at 38.5° C. overlaid with mineral oil and cultured to Day 8. Embryos were assessed for quality at Day 8 according to the definitions presented in the Manual of the International Embryo Transfer Society and were performed independently and blinded by an experienced bovine embryologist. […]

Another test deals with Bcl-2 and Bax proteins. The experiment in a line: Western blot of Bcl-2 and Bax expression in OOX cumulus cells. The following applies: OOX 24 h; for ratio of Bcl-2 to Bax: 132 ng/ml GDF-9, 10% v/v BMP-15 or 35 DO/well. The class given is cell-based, Bovine. On the procedure:
Following culture treatments, OOX complexes were lysed in […] RIPA lysis buffer (10 mM Tris [pH 7.4], 150 mM NaCl, 1 mM EDTA, 1% Trinton X-100 and stored at −80° C., for detection of apoptotic proteins using the sensitive Enhanced Chemiluminescence (ECl) Advance system (Amersham Biosciences, Ontario, Canada). Thawed lysates were mixed with 4× loading buffer containing 100 mM Dithiothretol (DTT) and subjected to SDS-PAGE (12% polyacrylamide gel). Proteins were subsequently electrotransferred to nitrocellulose membranes (Hybond-ECl, Amersham life Science, Ontario, Canada.) in 25 mM Tris-192 mM glycine containing 20% methanol. Blots were blocked in 20 mM Tris (pH 7.6) containing 13.7 mM NaCl, 1% Tween-20, and 2% blocking agent (provided in ECl Advance Kit) for 1 hr at RT, then incubated overnight with Bcl-2 or Bax rabbit polyclonal antibodies (0.35 μg/ml; Santa Cruz Biotechnology, Calif., USA) at 4° C., followed by incubation with horseradish peroxidase-conjugated anti-rabbit antibody (1:200 000; Silemus laboratories, Melbourne, Australia). Images were then scanned using a flat bed scanner and the intensity of Bcl-2 and Bax bands in each sample was quantitated by the ImageJ Imaging System Software version 1.3 (National Institutes of Health, USA).
This experiment was conducted to confirm that treatment effects on CC apoptosis, as assessed by TUNEL, are concomitant with changes in expression of key proteins regulating cell death and survival. OOX were cultured for 24 h untreated, or treated with 132 ng/ml GDF-9, 10% v/V BMP-15, co-cultured with 35 DO/well, or 10% 293H (control conditioned medium), and then subjected to Western blot for analysis of Bcl-2 and Bax expression.
For orientation: Immunoblotting shows a protein as a band on a membrane.

[1] abbreviates: 1st REP, COC IVM 24 h, 175 ng/ml GDF-9, 10% BMP-15, 10% 293H.

B1: GDF-9: Recombinant mouse GDF-9 produced in-house in transfected 293H cells, partially purified by HIC (protein, UniProt Q07105 307-441, looked up)
Growth/differentiation factor …: GQKAIRSEAKGPLLTASFNLSEYFKQFLFPQNECELHDFRLSFSQLKWDNWIVAPHRYNPRYCKGDCPRAVRHRYGSPVHTMVQNIIYEKLDPSVPRPSCVPGKYSPLSVLTIEPDGSIAYKEYEDMIATRCTCR
Take B1: the “BLACTOCYST RATE” value in the test on cumulus-oocyte complexes (setting [1]) worked out at 50%; with cumulus-oocyte complexes (2nd REP) it was 58%; with cumulus-oocyte complexes (3rd REP), 35%; in the test on cumulus-oocyte complexes (4th REP) it was 36%; in the test with cumulus-oocyte complexes (AVERAGE, control COC 41.5%), 45%. Besides, the “CLEAVAGE RATE” value in the test on cumulus-oocyte complexes (setting [1]) turned out to be 88%; in the test with cumulus-oocyte complexes (2nd REP) it was 92%; in the test on cumulus-oocyte complexes (3rd REP), 84%; in the test with cumulus-oocyte complexes (4th REP) it was 83%; in the test with cumulus-oocyte complexes (AVERAGE, control COC 84%), 87%. Further, the “ratio of Bcl-2 to Bax” value in the test with Bcl-2 and Bax proteins is “no effect”.

B2: BMP-15: Recombinant ovine BMP-15 produced in-house in transfected 293H cells, partially purified by hydrophobic interaction chromatography; dosed as % v/v (protein, UniProt Q9MZE2 269-393, looked up)
Bone morphogenetic protein 15: QAGSIASEVPGPSREHDGPESNQCSLHPFQVSFQQLGWDHWIIAPHLYTPNYCKGVCPRVLHYGLNSPNHAIIQNLVSELVDQNVPQPSCVPYKYVPISILLIEANGSILYKEYEGMIAQSCTCR
With B2, the “BLACTOCYST RATE” value is given as 58% with cumulus-oocyte complexes (setting [1]); 63% in the test with cumulus-oocyte complexes (2nd REP); 50% with cumulus-oocyte complexes (3rd REP); 50% in the test on cumulus-oocyte complexes (4th REP); 55% in the test on cumulus-oocyte complexes (AVERAGE, control COC 41.5%). In addition, the “CLEAVAGE RATE” value in the test on cumulus-oocyte complexes (setting [1]) is on record as 76%; in the test on cumulus-oocyte complexes (2nd REP), 90%; with cumulus-oocyte complexes (3rd REP), 80%; in the test with cumulus-oocyte complexes (4th REP), 85%; in the test on cumulus-oocyte complexes (AVERAGE, control COC 84%), 83%. For the same molecule, the “number of oocytes that reached the blastocyst stage post insemination” value with cumulus-oocyte complexes (alone or in combination with GDF9, compared with GDF-9 alone or no supplement) is reported as “more effective”. In the test with Bcl-2 and Bax proteins, the “ratio of Bcl-2 to Bax” value is given as “alter the ratio of Bcl-2 to Bax in favour of cell survival”. In addition, the “expression of Bax protein in CC” value in the test with Bcl-2 and Bax proteins (10% v/v BMP-15 or 35 DO/well) is “barely detectable”. Further, in the test with Bcl-2 and Bax proteins (10% v/v BMP-15 or 35 DO/well, compared to untreated or GDF-9), the “expression of Bcl-2 protein in CC” value is “significantly (P<0.001) higher”.

(Values after US8530235B2, “Medium that supports culture of an oocyte and modulation of granulosa cell apoptosis” (Adelaide Research & Innovation Pty Ltd., priority 2005, dated 2013).)
